# Source: the supplement of paper PMC12667976
# ± gives the standard error.
# B1: library; numbered along this chain (parent)
# chain: MATDAALRRLLRLHRTEIAVAVDSAFPLLHALADHDVVPEDKFQETLHLKEKEGCPQAFHALLSWLLTQDSTAILDFWRVLFKDYNLERYGRLQPILDSFPKDVDLSQPRKGRKPPAVPKALVPPPRLPTKRKASEEARAAAPAALTPRGTASPGSQLKAKPPKKPESSAEQQRLPLGNGIQTMSASVQRAVAMSSGDVPGARGAVEGILIQQVFESGGSKKCIQVGGEFYTPSKFEDSGSGKNKARSSSGPKPLVRAKGAQGAAPGGGEARLGQQGSVPAPLALPSDPQLHQKNEDECAVCRDGGELICCDGCPRAFHLACLSPPLREIPSGTWRCSSCLQATVQEVQPRAEEPRPQEPPVETPLPPGLRSAGEEVRGPPGEPLAGMDTTLVYKHLPAPPSAAPLPGLDSSALHPLLCVGPEGQQNLAPGARCGVCGDGTDVLRCTHCAAAFHWRCHFPAGTSRPGTGLRCRSCSGDVTPAPVEGVLAPSPARLAPGPAKDDTASHEPALHRDDLESLLSEHTFDGILQWAIQSMARPAAPFPS
# Variants of: B1
# Assay: AIRE transcriptional activation functional score (insulin promoter-GFP; nonsense median 0, synonymous median 1) (normalised score); higher = higher AIRE activity (more reporter activation)
# Settings: with insulin promoter-GFP reporter in HEK293
# In short: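 Functional scores come from comparing select with non-select enrichment of each variant and subtracting wild type. Codon-optimized AIRE NNN-codon libraries across three regions were integrated via Bxb1 recombinase into HEK293 landing-pad cells with an insulin core promoter-GFP reporter, and integrants sorted at day 7 were expanded 7 days before top 10% GFP and unselected populations were tile-sequenced. Variants needed 10 counts per million in non-select, and values were rescaled to nonsense median 0 and synonymous median 1 before averaging over biological replicates.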
row,Variant,AIRE transcriptional activation functional score
1,Q172A,0.74 ± 0.7
2,D442H,0.38 ± 0.23
3,A532L,1.01 ± 0.31
4,E237C,1.16 ± 0.11
5,E237G,1.06 ± 0.24
6,E237R,0.603 ± 0.38
7,K259Y,1.31 ± 0.23
8,A58H,-0.263 ± 0.4
9,D76T,0.0165 ± 0.26
10,R113N,1.68 ± 0.77
11,Q44S,0.392 ± 0.37
12,R465G,0.791 ± 0.25
13,S24M,1.04 ± 0.34
14,S24Y,0.463 ± 0.17
15,S24W,-0.0451 ± 0.22
16,A25R,0.337 ± 0.71
17,A25V,1.01 ± 0.52
18,V188E,0.556 ± 0.35
19,L158C,0.528 ± 0.29
20,L158R,0.202 ± 0.6
21,I211E,-0.399 ± 0.12
22,I211R,0.0828 ± 0.12
23,R378K,1.17 ± 0.2
24,P331S,0.73 ± 0.42

row,Variant,AIRE transcriptional activation functional score
1,E359G,1.02 ± 0.18
2,K294G,0.728 ± 0.32
3,K294I,0.609 ± 0.26
4,R351N,1.56 ± 0.053
5,D312L,0.872 ± 0.38
6,K253Q,1.95 ± 0.1
7,S535I,0.212 ± 0.36
8,S535L,0.146 ± 0.33
9,P367Q,1.26 ± 0.22
10,H458N,0.71 ± 0.04
11,L327V,0.621 ± 0.33
12,H48S,-0.318 ± 0.087
13,S107T,0.785 ± 0.34
14,A141K,1.19 ± 0.16
15,A141C,0.959 ± 0.26
16,I330Q,0.577 ± 0.11
17,A300F,1.57 ± 0.073
18,D503Y,1.14 ± 0.12
19,D503N,0.852 ± 0.06
20,L175K,0.766 ± 0.2
21,L175G,0.614 ± 0.4
22,T390A,0.741 ± 0.31
23,S195T,1.31 ± 0.091
24,S195R,1.13 ± 0.14

row,Variant,AIRE transcriptional activation functional score
1,S195D,0.8 ± 0.11
2,A373L,0.776 ± 0.5
3,L81T,0.331 ± 0.22
4,L67A,0.0875 ± 0.38
5,R356A,0.824 ± 0.18
6,F318A,0.96 ± 0.3
7,P490S,1.11 ± 0.2
8,L255D,0.362 ± 0.098
9,L255N,0.614 ± 0.2
10,F82Y,0.443 ± 0.26
11,V192E,0.516 ± 0.13
12,V192K,1.14 ± 0.042
13,A343Y,1.09 ± 0.17
14,A343N,0.601 ± 0.21
15,K395Q,1.35 ± 0.054
16,E17R,-0.438 ± 0.75
17,R247F,0.902 ± 0.26
18,R247C,1.05 ± 0.71
19,R247D,0.268 ± 0.11
20,K159E,0.955 ± 0.22
21,A134Y,0.952 ± 0.67
22,P368V,1.13 ± 0.21
23,V420I,0.811 ± 0.046
24,L414H,0.857 ± 0.045

row,Variant,AIRE transcriptional activation functional score
1,S491H,1.42 ± 0.061
2,R174M,0.283 ± 0.12
3,G421A,0.875 ± 0.25
4,M194S,0.554 ± 0.26
5,T130H,0.621 ± 0.2
6,L75F,0.688 ± 0.28
7,S287L,1.38 ± 0.31
8,S287K,0.385 ± 0.1
9,S287E,0.811 ± 0.19
10,E136K,-0.163 ± 0.49
11,L122G,1.29 ± 0.35
12,L122P,0.586 ± 0.2
13,G91C,-0.103 ± 0.58
14,G91M,1.02 ± 0.041
15,G91H,-0.774 ± 0.27
16,L28N,-1.05 ± 0.21
17,P350N,1.37 ± 0.076
18,S278A,0.851 ± 0.21
19,W455Y,0.988 ± 0.11
20,A186V,-0.207 ± 0.24
21,S332L,1.17 ± 0.25
22,P124K,0.627 ± 0.26
23,P124I,1.71 ± 0.21
24,D105G,0.621 ± 0.46

row,Variant,AIRE transcriptional activation functional score
1,V214W,0.402 ± 0.049
2,I181C,0.211 ± 0.088
3,L97S,-0.186 ± 0.55
4,L97G,-0.102 ± 0.52
5,N244Q,1.19 ± 0.12
6,L323G,1.16 ± 0.55
7,L323P,1.33 ± 0.32
8,A140C,0.626 ± 0.46
9,V301T,0.963 ± 0.24
10,G218K,0.888 ± 0.1
11,K165Q,0.596 ± 0.87
12,G440V,1.3 ± 0.26
13,A541C,1.43 ± 0.09
14,A541D,0.469 ± 0.25
15,A261S,0.631 ± 0.26
16,L366S,0.837 ± 0.26
17,Q276W,0.869 ± 0.12
18,Q276R,0.822 ± 0.37
19,P400L,0.451 ± 0.31
20,G201C,1.03 ± 0.031
21,G201A,0.802 ± 0.15
22,P315D,1.08 ± 0.14
23,Q290K,0.932 ± 0.018
24,Q290F,1.21 ± 0.16

row,Variant,AIRE transcriptional activation functional score
1,F100P,1.03 ± 0.12
2,F100A,0.229 ± 0.85
3,F100C,0.447 ± 0.15
4,F100Y,-0.017 ± 0.36
5,I533H,0.217 ± 0.096
6,P154D,0.0296 ± 0.054
7,P280W,-0.397 ± 0.28
8,G251K,1.05 ± 0.051
9,P126A,0.621 ± 0.17
10,K131L,-0.159 ± 0.3
11,K131V,0.174 ± 0.31
12,A352M,1.13 ± 0.076
13,G424S,1.19 ± 0.21
14,L63E,-1.39 ± 0.13
15,H507P,1.02 ± 0.21
16,H507N,1.19 ± 0.34
17,G263Q,-0.785 ± 0.52
18,K42R,-0.281 ± 0.49
19,L106R,0.112 ± 0.35
20,L106G,-0.428 ± 0.48
21,S153L,1.16 ± 0.42
22,S338V,0.911 ± 0.12
23,Q342F,1.08 ± 0.11
24,L62E,-0.679 ± 0.41

row,Variant,AIRE transcriptional activation functional score
1,C340A,1.65 ± 0.13
2,C340N,1.67 ± 0.053
3,L177F,1.5 ± 0.34
4,G431L,0.794 ± 0.35
5,R538S,0.733 ± 0.23
6,G197F,0.852 ± 0.32
7,F43P,0.556 ± 0.46
8,L370R,0.586 ± 0.23
9,A170P,0.929 ± 0.39
10,A152P,0.594 ± 1
11,A152L,1.19 ± 0.46
12,S506F,0.873 ± 0.072
13,V348G,1.04 ± 0.15
14,E171A,1.77 ± 0.5
15,K102Y,1.3 ± 0.33
16,T468M,1.12 ± 0.053
17,G260D,0.772 ± 0.12
18,G260L,1.29 ± 0.19
19,P143V,0.964 ± 0.27
20,K161Y,0.674 ± 0.45
21,G387T,1.22 ± 0.16
22,A537Q,0.813 ± 0.16
23,G269L,1.36 ± 0.38
